Results from patent US6989144.

Target: GPVI on baboon platelets (baboon)
Experiment: flow cytometry, washed baboon platelets; positive control

B1: convulxin (Cvx) purified from the venom of Crotalus durissus terrificus (ligand)
chain 1: GLHCPSDWYYYDQHCYRIFNEEMNWEDAEWFCTKQAKGAHLVSIKSAKEADFVAWMVTQNIEESFSHVSIGLRVQNKEKQCSTKWSDGSSVSYDNLLDLYITKCSLLKKETGFRKWFVASCIGKIPFVCKFPPQC
chain 2: GFCCPSHWSSYDRYCYKVFKQEMTWADAEKFCTQQHTGSHLVSFHSTEEVDFVVKMTHQSLKSTFFWIGANNIWNKCNWQWSDGTKPEYKEWHEEFECLISRTFDNQWLSAPCSDTYSFVCKFEA
B1 showed a Baboon fluorescence intensity of 72 and a Baboon platelets % positive of 95%.
